Kd data for 37 sequences are collected here from the Immune Epitope Database (IEDB).

The target in one test is HLA-A*02:02. Description: IEDB peptide-MHC binding, purified MHC/competitive/radioactivity; filed as Kd, often an IC50 or EC50 that approximates it; ≥ and ≤ were set here for values at or beyond the usual limits of such assays.
A further test has as its target HLA-A*02:03. The test is described as above.
A further test addresses HLA-A*02:06. The test is described as above.
For the next test, the target named is HLA-A*02:01. In words: IEDB peptide-MHC binding, purified MHC/direct/fluorescence; filed as Kd, often an IC50 or EC50 that approximates it; ≥ and ≤ were set here for values at or beyond the usual limits of such assays.
The target of a further test is HLA-B*15:01. The description is as above. The conditions noted are these: source organism: Rickettsia prowazekii.
The target in another test is HLA-A*03:01. The description is as above.
The target of the next test is HLA-A*69:01. The description is as above.
A further test addresses HLA-A*01:01. The description is as above. The conditions noted are these: source organism: Influenza A virus (A/Kinmen/645/04(H3N2)).
The mark [1] stands for this setting: source organism: Lassa virus Josiah.
[2] abbreviates: source organism: Vaccinia virus WR.
[3] abbreviates: source organism: SARS coronavirus Tor2.
[4] abbreviates: source organism: Escherichia coli.
The mark [5] stands for this setting: source organism: Vibrio vulnificus.

pKd: −log10 of the molar value. Where only a bound is given, the exact number is not on record here.

For the sequence CNYSKYWYL, the pKd (usually the negative decadic logarithm of the Kd, by convention in mol/L) is 5.44 with HLA-A*02:02 (setting [1]), 5.15 with HLA-A*02:03 (setting [1]) and 5.57 in the test with HLA-A*02:06 (setting [1]).

Regarding NLTQLFKYV, the values for the pKd in the test with HLA-A*02:02 (setting [2]), in the test with HLA-A*02:03 (setting [2]) and in the test with HLA-A*02:06 (setting [2]) were 6.49, 6.62 and 6.18, respectively.

Regarding VLAGIFAGV, the negative logarithm of the Kd (pKd) with HLA-A*02:01 (source organism: Mycobacterium tuberculosis) is not below 9.00.

As to TIDNIVTSLA, the negative logarithm of the Kd (pKd) with HLA-A*02:02 (setting [2]) was not above 4.15; with HLA-A*02:03 (setting [2]), not above 4.15; in the test with HLA-A*02:06 (setting [2]), not above 4.16.

Consider RLYNSLKRFT, for which the negative logarithm of the Kd (pKd) with HLA-A*02:02 (setting [2]) was 5.97; with HLA-A*02:03 (setting [2]) it was 6.35; with HLA-A*02:06 (setting [2]), 5.14.

For EILRNYLRL, the results for the pKd with HLA-A*02:02 (setting [2]), in the test with HLA-A*02:03 (setting [2]) and in the test with HLA-A*02:06 (setting [2]) were 4.85, 5.68 and 4.89, respectively.

Regarding SVDVDIYDAV, the pKd is 9.37 with HLA-A*02:02 (setting [2]), 8.04 with HLA-A*02:03 (setting [2]) and 8.48 with HLA-A*02:06 (setting [2]).

Consider IQGTLAKAY, for which the pKd with HLA-B*15:01 was 6.67.

Regarding ITTLLNETA, the figures for the pKd with HLA-A*02:02 (setting [2]), with HLA-A*02:03 (setting [2]) and in the test with HLA-A*02:06 (setting [2]) were 6.38, 6.03 and 6.22, respectively.

Take PLTLLIKTL: the pKd in the test with HLA-A*02:02 (setting [2]) is 5.28; with HLA-A*02:03 (setting [2]) it was 5.21; with HLA-A*02:06 (setting [2]), 5.09.

Regarding VVFLHVTYV, the pKd is 8.11 with HLA-A*02:02 (setting [3]), 9.55 with HLA-A*02:03 (setting [3]) and 8.41 with HLA-A*02:06 (setting [3]).

The sequence TMKPHTFNK had a pKd in the test with HLA-A*03:01 (source organism: Bacillus thuringiensis) of 6.92.

Take RILAYGPCL: the pKd was 6.38 in the test with HLA-A*02:01 (setting [4]) and not above 4.70 in the test with HLA-A*69:01 (setting [4]).

For KTDGAVTSPL, the pKd in the test with HLA-A*02:02 (setting [2]) was 7.21; with HLA-A*02:03 (setting [2]) it was 6.40; with HLA-A*02:06 (setting [2]), 6.46.

With VMCGGSLYV, the pKd with HLA-A*02:02 (setting [3]) is 9.22; with HLA-A*02:03 (setting [3]), 8.12; with HLA-A*02:06 (setting [3]), 8.17.

In the case of LVDKEDTDIV, the values for the pKd in the test with HLA-A*02:02 (setting [2]), in the test with HLA-A*02:03 (setting [2]) and with HLA-A*02:06 (setting [2]) were 5.43, 5.77 and not above 4.57, respectively.

Regarding IIRVTTELNI, the pKd was 5.00 in the test with HLA-A*02:02 (setting [2]), 5.06 with HLA-A*02:03 (setting [2]) and 4.86 with HLA-A*02:06 (setting [2]).

Take YLLGDSDSVA: the pKd with HLA-A*02:02 (setting [2]) is 8.71; with HLA-A*02:03 (setting [2]) it was 7.64; with HLA-A*02:06 (setting [2]), 6.87.

On to VQLLGRRFV, for which the pKd in the test with HLA-A*02:01 (setting [5]) and in the test with HLA-A*69:01 (setting [5]) was not above 4.70 each time.

On to VVECLTVPNI, for which the pKd with HLA-A*02:02 (setting [2]) is 5.07; with HLA-A*02:03 (setting [2]), 4.71; with HLA-A*02:06 (setting [2]), 6.52.

NIKPVIVPDI: the pKd is 4.99 in the test with HLA-A*02:02 (setting [2]), 6.13 with HLA-A*02:03 (setting [2]) and 6.02 in the test with HLA-A*02:06 (setting [2]).

As to IALALEQYGI, the values for the pKd with HLA-A*02:02 (setting [2]), with HLA-A*02:03 (setting [2]) and in the test with HLA-A*02:06 (setting [2]) were 6.01, 5.31 and 5.95, respectively.

On to LTNKKYRCMA, for which the pKd was not above 4.46 with HLA-A*02:02 (setting [2]), 5.27 with HLA-A*02:03 (setting [2]) and not above 4.16 with HLA-A*02:06 (setting [2]).

As to NIISYIILFI, the pKd in the test with HLA-A*02:02 (setting [2]) is 6.91; in the test with HLA-A*02:03 (setting [2]) it was 6.88; in the test with HLA-A*02:06 (setting [2]) it was 7.14.

With IAGIILLIL, the pKd with HLA-A*02:02 (setting [2]) is 5.38; with HLA-A*02:03 (setting [2]), not above 4.28; with HLA-A*02:06 (setting [2]) it was not above 4.11.

Take SVQLSNNKYV: the figures for the pKd with HLA-A*02:02 (setting [2]), in the test with HLA-A*02:03 (setting [2]) and with HLA-A*02:06 (setting [2]) were 5.91, 6.09 and 5.05, respectively.

As to ISEKLRSGY, in the test with HLA-A*01:01, the negative logarithm of the Kd (pKd) was 6.33.

As to YIWIKNLET, the pKd in the test with HLA-A*02:02 (setting [2]) is 4.90; with HLA-A*02:03 (setting [2]) it was 5.93; with HLA-A*02:06 (setting [2]), 6.46.

SLYGRYNCK had a pKd with HLA-A*03:01 (source organism: Mammarenavirus tacaribeense) of 7.05.

As for TTNNLLEQLI, the pKd in the test with HLA-A*02:02 (setting [2]) is 5.05; with HLA-A*02:03 (setting [2]), not above 4.68; in the test with HLA-A*02:06 (setting [2]), 4.88.

Regarding ALLGERPII, in the test with HLA-A*02:01 (source organism: Haemophilus influenzae), the pKd was 5.11.

YLGHSAGFT: the pKd with HLA-A*02:02 (setting [2]) is 6.06; in the test with HLA-A*02:03 (setting [2]) it was 6.65; with HLA-A*02:06 (setting [2]) it was 5.34.

As for DIYDAVRAFL, the negative logarithm of the Kd (pKd) with HLA-A*02:02 (setting [2]) was 5.84; in the test with HLA-A*02:03 (setting [2]) it was 5.16; with HLA-A*02:06 (setting [2]), 4.92.

Turning to FTNSQIFNII, the pKd is 6.84 with HLA-A*02:02 (setting [2]), 6.34 in the test with HLA-A*02:03 (setting [2]) and 5.92 with HLA-A*02:06 (setting [2]).

LIYDDNIDSI: the pKd is 6.92 with HLA-A*02:02 (setting [2]), 7.58 with HLA-A*02:03 (setting [2]) and 6.67 with HLA-A*02:06 (setting [2]).

Consider IMRVMANNV, for which the pKd is 6.40 with HLA-A*02:02 (setting [2]), 5.90 with HLA-A*02:03 (setting [2]) and 5.60 with HLA-A*02:06 (setting [2]).

As for DTSNNIAEYI, the negative-log Kd (pKd) in the test with HLA-A*02:02 (setting [2]) was 5.48; in the test with HLA-A*02:03 (setting [2]), 5.04; in the test with HLA-A*02:06 (setting [2]), not above 4.34.
